Measurements taken from patent US20030008329A1 (Takeda / Millennium, published 2003).
Where no end group is shown, it is not given here.

Experiments:
[1] = target: mouse-derived galanin receptor protein (mouse pancreatic β-cell line MIN6-derived, encoded by pMGR20) (mouse) (UniProt P56479); assay: competition with [125I] porcine galanin on MIN6 cell membrane fractions, 25 C 75 min, filtration
[2] = target: mouse-derived galanin receptor protein (mouse pancreatic β-cell line MIN6-derived, encoded by pMGR20) (mouse) (UniProt P56479); assay: competition with porcine [125I] galanin on membranes of CHO cells expressing the mouse galanin receptor
[3] = target: mouse-derived galanin receptor protein (mouse pancreatic β-cell line MIN6-derived, encoded by pMGR20) (mouse) (UniProt P56479); assay: competition with 100 pM porcine [125I] galanin on membranes of CHO cells expressing the mouse galanin receptor, 25 C 75 min
[4] = target: T1, mouse-derived galanin receptor protein (mouse pancreatic β-cell line MIN6-derived, encoded by pMGR20) (mouse, UniProt P56479 1-348); assay: saturation binding and Scatchard plot analysis on membrane fractions of CHO cells transformed with mouse galanin receptor cDNA, 25 C 75 min, filtration
T1 construct: also called mouse galanin receptor; MIN6-derived galanin receptor protein
T1 sequence: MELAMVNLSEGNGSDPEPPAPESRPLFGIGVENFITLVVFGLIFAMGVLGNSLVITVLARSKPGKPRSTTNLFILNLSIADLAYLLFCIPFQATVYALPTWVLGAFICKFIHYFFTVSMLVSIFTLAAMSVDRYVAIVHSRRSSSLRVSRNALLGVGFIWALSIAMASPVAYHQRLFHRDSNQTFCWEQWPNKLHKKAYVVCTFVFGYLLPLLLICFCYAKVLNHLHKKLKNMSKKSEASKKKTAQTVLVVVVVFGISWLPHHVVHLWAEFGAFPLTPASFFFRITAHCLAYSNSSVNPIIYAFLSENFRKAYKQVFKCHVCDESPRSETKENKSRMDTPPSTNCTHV
Source text: (§1) The results shown are from one representative experiment performed in triplicate assays.
as §1

[5] = target: T1, mouse-derived galanin receptor protein …; assay: competition with porcine [125I] galanin on membranes of CHO cells expressing the mouse galanin receptor
Method: (§2) Membrane fractions (1 μg of protein) were incubated with the ligands for 75 min at 25° C. […] Each symbol represents the mean value±S.E.M. of the triplicate assays.

[6] = target: T1, mouse-derived galanin receptor protein …; assay: competition with 100 pM porcine [125I] galanin on membranes of CHO cells expressing the mouse galanin receptor, 25 C 75 min
Method: as §2

[7] = target: T1, mouse-derived galanin receptor protein …; assay: competition with [125I] porcine galanin on MIN6 cell membrane fractions, 25 C 75 min, filtration
Method: The MIN6 cell membrane fractions prepared by the method of the above-mentioned (1) were diluted with a buffer for the receptor binding experiment (containing 20 mM of Tris, 1 mM of EDTA, 0.03% of NaN , 0.1% of BSA, 0.05% of CHAPS, 0.5 mM of PMSF, 10 μg/ml of pepstatin, 20 μg/ml of leupeptin and 4 μg/ml of E-64; pH: 7.4) to make the membrane protein concentration 50 μg/ml.
The mixture was allowed to stand in a water bath of 25° C. for 75 minutes to promote the receptor binding reaction. Thereafter, 1.5 ml of an ice-cooled buffer for the binding experiment was added to the reaction solution for quenching the binding reaction and filtered with a glass fiber filter (GF/F, manufactured by Whatman) immediately whereupon the membrane fractions were collected on the filter paper. Then the filter paper was washed with 1.5 ml of the same buffer and the amount of the radioisotope in the filter paper was determined by a gamma-ray detector.

galanin antagonist (galantide) (peptide)
IC50 [1]: 0.69 nM

M15 (galanin receptor antagonist) (peptide)
Ki [2]: 0.23 nM
IC50 [3]: 0.83 nM

B1: porcine [125I] galanin (peptide, UniProt P07480 33-61, looked up)
peptide: GWTLNSAGYLLGPHAIDNHRSFHDKYGLA
modifications: ends and bridges not checked; also: [125I] radioisotope label (residue not given here)
notes: mature; also called labeled galanin
Kd [4]: 0.045 nM

B2: human galanin (unlabeled) (peptide, UniProt P22466 33-62, looked up)
peptide: GWTLNSAGYLLGPHAVGNHRSFSDKNGLTS
notes: mature; The assay used the galanin peptide
Ki [5]: 0.12 nM
IC50 [6]: 0.43 nM

B3: porcine galanin (unlabeled) (peptide, UniProt P07480 33-61, looked up)
peptide: GWTLNSAGYLLGPHAIDNHRSFHDKYGLA
modifications: ends and bridges not checked
notes: mature; The assay used the 29-residue peptide; also called standard porcine galanin; galanin (porcine)
IC50 [7]: 0.12 nM
Ki [5]: 0.072 nM

B4: galanin (1-16) partial peptide (peptide)
peptide: GWTLNSAGYLLGPHAI
notes: The range 1-16 counts on the mature peptide, not on the precursor
IC50 [7]: 3.3 nM
Ki [5]: 1 nM
IC50 [6]: 3.6 nM
